Test results as given in patent US20090175858A1 (Merck KGaA, published 2009).

Legend:
[1] = target: T1, sEGFRd3 (isolated domain III of sEGFR; amino acids 310-514 of mature EGFR) (UniProt P00533 334-538); assay: SPR (Biacore 3000), equilibrium response, sEGFRd3 over immobilized Fab72000
T1 construct: range 310-514; The range 310-514 counts on mature EGFR, not on the precursor; also called soluble extracellular EGFR domain III

sEGFR K454A/T459A/S460A = target: T2, sEGFR K454A/T459A/S460A (UniProt P00533 25-645, limits assumed); assay: SPR, equilibrium response, mutated sEGFR passed over immobilized Fab72000 [2A]
T2 construct: extracellular domain; Positions are in mature EGFR numbering; also called triple alanine mutant

sEGFR T459A/S460A/K463A = target: T3, sEGFR T459A/S460A/K463A (UniProt P00533 25-645, limits assumed); assay: as above
T3 construct: extracellular domain; Positions are in mature EGFR numbering; also called triple alanine mutant

[2] = target: T4, sEGFR (soluble extracellular region of EGFR), wild-type (UniProt P00533 25-645, limits assumed); assay: SPR (Biacore 3000), equilibrium response, sEGFR over immobilized Fab72000
T4 construct: extracellular domain; also called EGFR soluble extracellular domain

B1: Fab fragment of matuzumab (Fab72000) (Fab, V domains shown)
VH: QVQLVQSGAEVKKPGASVKVSCKASGYTFTSHWMHWVRQAPGQGLEWIGEFNPSNGRTNYNEKFKSKATMTVDTSTNTAYMELSSLRSEDTAVYYCASRDYDYDGRYFDYWGQGTLVTVSS
VL: DIQMTQSPSSLSASVGDRVTITCSASSSVTYMYWYQQKPGKAPKLLIYDTSNLASGVPSRFSGSGSGTDYTFTISSLQPEDIATYYCQQWSSHIFTFGQGTKVEIKR
notes: also called Fab fragment of EMD 72000
[1]
  Kd: 50.1 nM
sEGFR K454A/T459A/S460A
  binding result: no binding (tested: 2000 nM)
sEGFR T459A/S460A/K463A
  binding result: no binding (tested: 2000 nM)
[2]
  Kd: 103 nM
